Data taken from patent US20060252724A1 (Pfizer, published 2006).

Molecular target: T1, rhBMP-2 (recombinant human bone morphogenetic protein-2) (human, UniProt P12643 283-396)
T1 construct: Control protein on the Western blot; Analysed on reducing SDS-PAGE
Assay: co-immunoprecipitation

T1 sequence (P12643 283-396 limits assumed): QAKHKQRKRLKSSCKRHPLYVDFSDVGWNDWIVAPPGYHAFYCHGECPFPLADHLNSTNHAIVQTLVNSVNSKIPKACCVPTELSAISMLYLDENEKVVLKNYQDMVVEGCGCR

B1: retrovirally produced BMP-3 (from pBABE-BMP3, full-length human BMP-3 cDNA, secreted by infected W-20-17 cells) (ligand)
chain: QWIEPRNCARRYLKVDFADIGWSEWIISPKSFDAYYCSGACQFPMPKSLKPSNHATIQSIVRAVGVVPGIPEPCCVPEKMSSLSILFFDENKNVVLKVYPNMTVESCACR
notes: Expressed from the full-length human cDNA; The secreted, processed form has a most abundant monomer of about 28 kD, with glycosylated or alternatively processed forms; also called vBMP3; BMP-3 CM
Does B1 bind?
Result: no binding
